One substance from PMC8709174 can be followed below.

In the experiment the target is Aplysia californica acetylcholine binding protein (Ac-AChBP) (Aplysia californica). Kind of experiment: crystal structure.

Turning to α-conotoxin RgIA (peptide), the stoichiometry N (RgIA per Ac-AChBP pentamer) amounted to 5.
